Source: patent US11072647B2, “TGF-receptor II isoform, fusion peptide, methods of treatment and methods in vitro” (Onsejo Nacional DE Investigation Cientiticay Tecnica, priority 2013, dated 2021)

Columns and labels:
A549 cells = experiment: MTT proliferation assay in transduced A549 cells with TGFβ-1; format: cell-based, human
Experimental: Additionally, to check whether TβRII-SE acts as a TGFβ-1 agonist, A459 cells either overexpressing TβRII-SE or not (untransduced cells or UT) were incubated in the presence of increasing concentrations of TGFβ-1 (FIG. 10B). […] However, in cells overexpressing TβRII-SE, proliferation started to decrease at a TGFβ-1 concentration of 0.1 nM compared to the same cell line without the addition of TGF-β1.
A549 cells were transduced with lentiviral vectors at a multiplicity of infection (MOI) of 50 in the presence of 8 μg/ml polybrene. Percentage of eGFP positive cells was measured in a FACscalibur (Becton Dikinson) cytometer.
Cells were harvested, counted, and inoculated at the appropriate concentrations into 96-well plates using a multichannel pipette. After 24 hr, TGF-β1 (10 ng/ml and 20 ng/ml; Sigma) was added to the culture wells, and cultures were incubated for 24 hr and 48 hr at 37° C., under an atmosphere of 5% CO2. MTT (3-(4,5-dimethylthiazol-2-yl)-2,5-diphenyltetrazolium bromide) (Sigma) solution at a concentration of 5 mg/ml was added to the media and the cells were further incubated for 4 hr. After replacing 100 μl of supernatant with 100 μl of DMSO, the absorbance of each well was determined at 540 nm with a SEAC (Sirio S) photometer (Italy). The percentage of cell survival was defined as the relative absorbance of treated versus untreated cells.

[1] = tested on: TβRII receptors (TβRII-A, TβRII-B and TβRII-SE) mRNA in hASCs; experiment: RT-PCR / qRT-PCR of TβRII isoform mRNA in transduced hASC; format: cell-based, human
Experimental: To further assess the agonistic role of the TβRII-SE isoform, hASCs were transduced with Lt-TβRII-SE, Lt-TβRIIA-DN, and Lt.eGFP, at an MOI of 150 as described in the examples. Seventy two hours after transduction the percentage of eGFP expressing cells was measured by flow cytometry (FIG. 11A).
mRNA levels of all three isoforms of Type II TGF-β receptor were also quantified by qRT-PCR (FIG. 13).
Total RNA from different primary cultures and cell lines was isolated using the Absolutely RNA kit (Stratagene, La Jolla, Calif., USA). First-strand cDNA was synthesized by mixing 1 μg of DNA free total RNA, 50 pmol primer p(DT)15 (Roche Diagnostics GmbH, Mannheim, Germany), 0.5 mM deoxyribonucleotide triphosphate, 5 mM dithiothreitol, and 1 U Expand Reverse Transcriptase (Roche Diagnostics GmbH). cDNA corresponding to different isoforms of TβRII receptor was detected by PCR amplification in the presence of Expand High Fidelity polymerase (Roche Diagnostics GmbH), 0.2 mM dNTPS, and 0.5 μM of each primer (forward: 5′[…]3′ (SEQ ID No. 10) and reverse: 5′[…]3′ (SEQ ID No. 11) for 35 cycles using the following PCR conditions: 1 min. at 95° C., 1 min. at 55° C., and 1 min. at […]

TβRII isoform A expression (RT-PCR, 582 bp band) ([1]; transduced hASC): downregulates TβRII isoform A expression
TβRII-A and B variants mRNA levels (qRT-PCR) ([1]; transduced hASC vs untransduced): decreased dramatically
B1: TβRII-SE: 80 amino acid soluble endogenous isoform of human TGF-β receptor II lacking the transmembrane domain, SEQ ID No. 2 (protein, listed as Homo sapiens)
chain: MGRGLLRGLWPLHIVLWTRIASTIPPHVQKSVNNDMIVTDNNGAVKFPQLCKFCDVRFSTCDNQKSCFSKVHYEGKKKAW
TGFβ-1 concentration at which proliferation started to decrease (A549 cells; cells overexpressing TβRII-SE, increasing TGFβ-1 concentrations (UT cells: 0.2 nM)): 0.1 nM
cell proliferation (MTT) (A549 cells; transduced A549 cells, 0.4 nM TGFβ-1 vs untreated): proliferate significantly less than the same cells not treated with TGFβ-1
